Patent US11203773B2, “Designer ribosomes and methods of use thereof for incorporating non-standard amino acids into polypeptides” (Yale University, priority 2016, dated 2021)

How the values were obtained:
[1] = substrate: CSCC[C@H](N)C(=O)O; assay: purified protein, by the assay type; details: MetRS
[2] = substrate: N[C@@H](Cc1ccc(O)cc1)C(=O)O; assay: Adenylation of α- and β-Tyr, coupled MESG/PNP pyrophosphate release assay; type: biochemical, E. coli; details: other: adenylation, TyrRS
Excerpt: ii. Adenylation of α- and β-Tyr catalyzed by E. coli TyrRS. These reactions were monitored spectrophotometrically in a coupled assay using inorganic pyrophosphatase, 2-amino-6-mercapto-7-methylpurine ribonucleoside (MESG), and purine nucleoside phosphorylase (PNP) to monitor the rate of pyrophosphate release, according to the manufacturer's instructions (Enzcheck Pyrophosphate assay kit, Thermo Fisher Scientific). The assay measures the increase in absorbance at 360 nm due to MESG phosphorolysis, and two molecules of MESG are consumed per pyrophosphate generated. This direct assay could be employed for TyrRS because the rate of ATP hydrolysis (in the absence of amino acid substrate) was insignificant, which was not the case for the other synthetases which therefore required the more laborious pyrophosphate exchange assay described above. […] For TyrRS, kcat is the turnover number (units of reciprocal time) since the change in absorbance can be directly correlated to concentration of pyrophosphate formed.

[3] = substrate: N[C@@H](Cc1ccc(O)cc1)C(=O)O; assay: Aminoacylation of 32P-tRNA with α- and β3-amino acids; type: biochemical, E. coli; details: other: aminoacylation, TyrRS
[4] = substrate: N[C@@H](Cc1ccccc1)C(=O)O; assay: purified protein, by the assay type; details: other: adenylation, PheRS; pH 7.0; 25.0 °C
Description: Adenylation of α- and β-Amino Acids Catalyzed by E. coli PheRS, GlyRS, MetRS, and GluRS. […] Briefly, assay mixtures (50 μL) assembled at 25° C. contained the requisite α- or β^3-amino acid substrate (between 5 μM and 5 mM) in 100 mM HEPES (pH 7.0) containing 100 mM KCl, 15 mM MgCl2, 2 mM ATP, 0.5 mM NaPPi, and 50 μCi [^32P]-NaPPi). Reactions were initiated upon addition of enzyme (10 nM MetRS, 10 nM PheRS, or 50 nM GlyRS; 100 nM GluRS for reactions with α-Glu or 1.13 μM GluRS for reactions with β^3-Glu), incubated for various times (10 sec to 10 min), and halted by adding a 5 μL reaction aliquot to 100 μL quenching solution (10% charcoal, 0.5% HCl). 50 μL of 200 mM NaPPi in 1.5 N HCl was then added to each quenched reaction to decrease nonspecific binding of pyrophosphate to the charcoal. Each quenched reaction was then filtered through Whatman filter paper (number 3), previously washed with washing solution (200 mM NaPPi in 1 N HCl) using a 96-well BIO-DOT® apparatus (BioRad). Each well of the apparatus was then washed four times with 200 μL aliquots of washing solution (by pipetting washing solution up and down at least 10 times per wash) to minimize nonspecific binding of pyrophosphate to charcoal. Each experimental well was paired with an analogous control well (no-enzyme control) that lacked enzyme; a single membrane contained time points for both α- and β^3-amino acid substrates and all no-enzyme controls. The membrane was allowed to dry and was protected with a sheet of Microseal B adhesive seals (Biorad) prior to exposure to a BAS Storage Phosphor screen. Screens were imaged on a Typhoon 9500FLA biomolecule imager and the signal intensity of each dot was quantified using ImageJ to determine the relative amount of [^32P]-ATP formed as a function of time (Ctime). Each raw value were corrected by subtracting the intensity of the dot corresponding to the appropriate no-enzyme control (Cblank) and the resulting corrected values of Ccorr (representing the relative amounts of ^32P-ATP formed) were plotted as a function of time to determine values of relative ^32P-ATP formed per minute. Those values were divided by the concentration of enzyme used, and the data was plotted as relative specific activity (^32P-ATP formed min^−1×μM^−1 enzyme) and fitted using Prism by performing nonlinear regression using the least squares method and Equation 1 to obtain RSA (relative specific activity) and KM values (Equation 1 and Table 2).
In Equation 1, v is the apparent relative specific activity (relative ^32P-ATP formed per minute) obtained at each substrate concentration divided by the enzyme concentration, RSA is the relative specific activity, S is the concentration of substrate, and KM is the Michaelis-Menten constant.

[5] = substrate: N[C@@H](Cc1ccccc1)C(=O)O; assay: Aminoacylation of 32P-tRNA with α- and β3-amino acids; type: biochemical, E. coli; details: other: aminoacylation, PheRS

B1: E. coli MetRS (Escherichia coli K-12) (protein)
chain: MTQVAKKILVTCALPYANGSIHLGHMLEHIQADVWVRYQRMRGHEVNFICADDAHGTPIMLKAQQLGITPEQMIGEMSQEHQTDFAGFNISYDNYHSTHSEENRQLSELIYSRLKENGFIKNRTISQLYDPEKGMFLPDRFVKGTCPKCKSPDQYGDNCEVCGATYSPTELIEPKSVVSGATPVMRDSEHFFFDLPSFSEMLQAWTRSGALQEQVANKMQEWFESGLQQWDISRDAPYFGFEIPNAPGKYFYVWLDAPIGYMGSFKNLCDKRGDSVSFDEYWKKDSTAELYHFIGKDIVYFHSLFWPAMLEGSNFRKPSNLFVHGYVTVNGAKMSKSRGTFIKASTWLNHFDADSLRYYYTAKLSSRIDDIDLNLEDFVQRVNADIVNKVVNLASRNAGFINKRFDGVLASELADPQLYKTFTDAAEVIGEAWESREFGKAVREIMALADLANRYVDEQAPWVVAKQEGRDADLQAICSMGINLFRVLMTYLKPVLPKLTERAEAFLNTELTWDGIQQPLLGHKVNPFKALYNRIDMRQVEALVEASKEEVKAAAAPVTGPLADDPIQETITFDDFAKVDLRVALIENAEFVEGSDKLLRLTLDLGGEKRNVFSGIRSAYPDPQALIGRHTIMVANLAPRKMRFGISEGMVMAAGPGGKDIFLLSPDAGAKPGHQVK
**Q.** Which results are given for B1?
**A.** Km ([1]; other: adenylation, pH 7.0, 25.0 °C): 23.4 ± 8.0 µM; Km ([1]; other: aminoacylation): 243.4 ± 55.7 µM; kcat ([1]; other: aminoacylation): 0.0233 s⁻¹; kcat/Km ([1]; other: aminoacylation): 100 M⁻¹ s⁻¹

B2: E. coli TyrRS (Escherichia coli K-12) (protein)
chain: MASSNLIKQLQERGLVAQVTDEEALAERLAQGPIALYCGFDPTADSLHLGHLVPLLCLKRFQQAGHKPVALVGGATGLIGDPSFKAAERKLNTEETVQEWVDKIRKQVAPFLDFDCGENSAIAANNYDWFGNMNVLTFLRDIGKHFSVNQMINKEAVKQRLNREDQGISFTEFSYNLLQGYDFACLNKQYGVVLQIGGSDQWGNITSGIDLTRRLHQNQVFGLTVPLITKADGTKFGKTEGGAVWLDPKKTSPYKFYQFWINTADADVYRFLKFFTFMSIEEINALEEEDKNSGKAPRAQYVLAEQVTRLVHGEEGLQAAKRITECLFSGSLSALSEADFEQLAQDGVPMVEMEKGADLMQALVDSELQPSRGQARKTIASNAITINGEKQSDPEYFFKEEDRLFGRFTLLRRGKKNYCLICWK
notes: made in house; host or cells: E. coli BL21(DE3)
**Q.** How did the Km [2] turn out when B2 was run?
**A.** The Km was 21.4 ± 6.9 µM.

**Q.** What about the kcat [2] of the same protein?
**A.** The kcat was 0.0203 ± 0.00183 s⁻¹.

**Q.** What about the kcat/Km [2] of the same protein?
**A.** Its kcat/Km is 1000 ± 333 M⁻¹ s⁻¹.

**Q.** What about the Km [3] of the same protein?
**A.** Its Km is 12.4 ± 4.8 µM.

**Q.** What about the kcat [3] of the same protein?
**A.** The kcat was 1.18 ± 0.128 s⁻¹.

**Q.** And the kcat/Km [3]?
**A.** Its kcat/Km is 95000 ± 38300 M⁻¹ s⁻¹.

B3: E. coli PheRS (Escherichia coli K-12) (protein)
chain: MSHLAELVASAKAAISQASDVAALDNVRVEYLGKKGHLTLQMTTLRELPPEERPAAGAVINEAKEQVQQALNARKAELESAALNARLAAETIDVSLPGRRIENGGLHPVTRTIDRIESFFGELGFTVATGPEIEDDYHNFDALNIPGHHPARADHDTFWFDTTRLLRTQTSGVQIRTMKAQQPPIRIIAPGRVYRNDYDQTHTPMFHQMEGLIVDTNISFTNLKGTLHDFLRNFFEEDLQIRFRPSYFPFTEPSAEVDVMGKNGKWLEVLGCGMVHPNVLRNVGIDPEVYSGFAFGMGMERLTMLRYGVTDLRSFFENDLRFLKQFK
notes: as for B2
**Q.** For B3, which Km [4] is on record?
**A.** Its Km is 52.8 ± 25.8 µM.

**Q.** What about the Km [5] of the same protein?
**A.** The Km was 200.4 ± 78.8 µM.
